Reference: patent US20150086555A1

Experiments:
Conditions in all cases: remark: other sources report otherwise
[1] = biological target: recombinant homotrimeric HA A/Anhui/1/05 H5N1 (Influenza A virus A/Anhui/1/2005(H5N1)); test: protein microarray, purified IgG, trimeric HA
[2] = biological target: recombinant homotrimeric HA A/Indonesia/5/05 H5N1 (Influenza A virus A/Indonesia/5/2005(H5N1)); test: protein microarray, purified IgG, trimeric HA
[3] = biological target: recombinant homotrimeric HA A/Solomon Islands/3/06 H1N1 (Influenza A virus A/Solomon Islands/3/2006(H1N1)); test: protein microarray, purified IgG, trimeric HA
[4] = biological target: recombinant homotrimeric HA A/South Carolina/1/18 H1N1 (Influenza A virus A/South Carolina/1/18 (H1N1)); test: protein microarray, purified IgG, trimeric HA
[5] = biological target: recombinant homotrimeric HA A/Hong Kong/1073/99 H9N2 (Influenza A virus A/Hong Kong/1073/99 (H9N2)); test: protein microarray, purified IgG, trimeric HA
[6] = biological target: recombinant homotrimeric HA A/California/4/09 H1N1 (Influenza A virus A/California/04/2009(H1N1)); test: protein microarray, purified IgG, trimeric HA
[7] = biological target: recombinant homotrimeric HA A/chicken/Vietnam/NCVD-016/08 H5N1 (Influenza A virus A/chicken/Vietnam/NCVD-016/2008(H5N1)); test: protein microarray, purified IgG, trimeric HA
[8] = biological target: recombinant homotrimeric HA A/Netherlands/219/03 H7N7 (Influenza A virus A/Netherlands/219/03(H7N7)); test: protein microarray, purified IgG, trimeric HA
[9] = biological target: recombinant homotrimeric HA A/Hong Kong/156/97 H5N1 (Influenza A virus A/Hong Kong/156/97 (H5N1)); test: protein microarray, purified IgG, trimeric HA
[10] = biological target: recombinant homotrimeric HA A/Japan/305/57 H2N2 (Influenza A virus A/Japan/305/1957(H2N2)); test: protein microarray, purified IgG, trimeric HA
[11] = biological target: recombinant homotrimeric HA A/Hong Kong/2108/03 H9N2 (Influenza A virus A/HK/2108/2003(H9N2)); test: protein microarray, purified IgG, trimeric HA
[12] = biological target: recombinant homotrimeric HA A/Egypt/3300-NAMRU3/08 H5N1 (Influenza A virus A/Egypt/3300-NAMRU3/2008(H5N1)); test: protein microarray, purified IgG, trimeric HA
[13] = biological target: recombinant homotrimeric HA A/northern shoveler/California/HKWF115/07 H6N4 (Influenza A virus A/northern shoveler/California/HKWF115/2007(H6N1)); test: protein microarray, purified IgG, trimeric HA
[14] = biological target: recombinant homotrimeric HA A/Vietnam/1203/04 H5N1 (Influenza A virus A/VietNam/1203/2004(H5N1)); test: protein microarray, purified IgG, trimeric HA
[15] = biological target: recombinant soluble homotrimeric HA of A/northern shoveler/California/HKWF115/07 (H6) (Influenza A virus A/northern shoveler/California/HKWF115/2007(H6N1)); test: HA microarray, BCC supernatant
[16] = biological target: recombinant soluble homotrimeric HA of A/Indonesia/5/05 (H5N1) (Influenza A virus A/Indonesia/5/2005(H5N1)); test: HA microarray, BCC supernatant
[17] = biological target: recombinant soluble homotrimeric HA of A/Wisconsin/67/05 (H3N2) (Influenza A virus A/Wisconsin/67/2005(H3N2)); test: HA microarray, BCC supernatant
[18] = biological target: recombinant soluble homotrimeric HA of A/California/4/09 (H1N1) (Influenza A virus A/California/04/2009(H1N1)); test: HA microarray, BCC supernatant
[19] = biological target: recombinant soluble homotrimeric HA of A/Japan/305/57 (H2N2) (Influenza A virus A/Japan/305/1957(H2N2)); test: HA microarray, BCC supernatant
[20] = biological target: recombinant soluble homotrimeric HA of A/duck/Yangzhou/02/05 (H8N4) (Influenza A virus A/duck/Yangzhou/02/2005(H8N4)); test: HA microarray, BCC supernatant
[21] = biological target: recombinant soluble homotrimeric HA of A/Hong Kong/2108/03 (H9N2) (Influenza A virus A/HK/2108/2003(H9N2)); test: HA microarray, BCC supernatant
[22] = biological target: recombinant soluble homotrimeric HA of A/Anhui/1/05 (H5N1) (Influenza A virus A/Anhui/1/2005(H5N1)); test: HA microarray, BCC supernatant
[23] = biological target: recombinant soluble homotrimeric HA of A/Vietnam/1203/04 (H5N1) (Influenza A virus A/VietNam/1203/2004(H5N1)); test: HA microarray, BCC supernatant
[24] = biological target: recombinant soluble homotrimeric HA of A/chicken/Vietnam/NCVD-016/08 (H5N1) (Influenza A virus A/chicken/Vietnam/NCVD-016/2008(H5N1)); test: HA microarray, BCC supernatant
[25] = biological target: recombinant soluble homotrimeric HA of A/Solomon Islands/3/06 (H1N1) (Influenza A virus A/Solomon Islands/3/2006(H1N1)); test: HA microarray, BCC supernatant
[26] = biological target: recombinant soluble homotrimeric HA of A/Netherlands/219/03 (H7N7) (Influenza A virus A/Netherlands/219/03(H7N7)); test: HA microarray, BCC supernatant
[27] = biological target: recombinant homotrimeric HA A/Wisconsin/67/05 H3N2 (Influenza A virus A/Wisconsin/67/2005(H3N2)); test: protein microarray, purified IgG, trimeric HA

Binder | Trimeric HA Binding: RLU [1] | Trimeric HA Binding: RLU [2] | Trimeric HA Binding: RLU [3] | Trimeric HA Binding: RLU [4] | Trimeric HA Binding: RLU [5] | Trimeric HA Binding: RLU [6] | Trimeric HA Binding: RLU [7] | Trimeric HA Binding: RLU [9] | Trimeric HA Binding: RLU [10] | Trimeric HA Binding: RLU [11] | Trimeric HA Binding: RLU [12] | Trimeric HA Binding: RLU [13] | Trimeric HA Binding: RLU [14] | Trimeric HA Binding: RLU [16] | Trimeric HA Binding: RLU [18] | Trimeric HA Binding: RLU [19] | Trimeric HA Binding: RLU [20] | Trimeric HA Binding: RLU [21] | Trimeric HA Binding: RLU [22] | Trimeric HA Binding: RLU [23] | further results
TCN-534 (5249_B02) (antibody, V domains shown) VH: QVQLVQSGAEVKKPGSSVKVSCRESGGTFNGYTITWVRQAPGQGLEWMGGIIPMMGTVNYAQKLQGRVTITTDYFTKTAYMDLNNLRSEDTAMYYCVKIRYTGQQLLWGQGTLVTVSS VL: DIQMTQSPSTLSASIGDRVTITCRASQSIASWLAWYQQKPGKAPKLLIYEAVNLESGVPSRFSGSGSGTDFTLTISSLQPDDFATYFCQHYGTISQTFGGGTKVEIK | 1900 RLU | 19500 RLU | 11400 RLU | 9240 RLU | 918 RLU | 20700 RLU | 5170 RLU | 13200 RLU | 29100 RLU | 172 RLU | 18200 RLU | 21700 RLU | 25900 RLU | 46400 RLU | 30100 RLU | 50600 RLU | 46500 RLU | 165 RLU | 6860 RLU | 3440 RLU | Trimeric HA Binding: RLU [8]: 3420 RLU; Trimeric HA Binding: RLU [15]: 52400 RLU; Trimeric HA Binding: RLU [17]: 7980 RLU; Trimeric HA Binding: RLU [24]: 56600 RLU; Trimeric HA Binding: RLU [25]: 44200 RLU; Trimeric HA Binding: RLU [26]: 4340 RLU
TCN-546 (5089_L08) (antibody, V domains shown) VH: QVQLQQWGAGLLKPSETLSLTCGVYGGSLSDYYWSWIRQPPGKGLEWIGEINHSGGTNYNPSLKRRVTISVDTSKKQFSLKMNSVTAADTAVYYCARGTDPDTEVYCRAGNCAAFDFWGQGTLVTVSS VL: EIVLTQSPGTLSLSPGERATLSCRASHFVIGRAVAWYQQKPGQAPRLLIYGASSRATGIPDRFSGSGSGTDFTLTISRLETEDFAVFYCQHYGSSPRYAFGQGTKLEIK | 21400 RLU | 147 RLU | – | 88 RLU | 505 RLU | 277 RLU | 207 RLU | 890 RLU | 503 RLU | 307 RLU | 11200 RLU | – | 1200 RLU | 18400 RLU | 350 RLU | 520 RLU | 487 RLU | 13000 RLU | 2040 RLU | 349 RLU | Trimeric HA Binding: RLU [27]: 25500 RLU; Trimeric HA Binding: RLU [8]: 386 RLU; Trimeric HA Binding: RLU [17]: 30200 RLU; Trimeric HA Binding: RLU [24]: 421 RLU; Trimeric HA Binding: RLU [26]: 1450 RLU
TCN-523 (5248_A17) (antibody, V domains shown) VH: QVQLVQSGAEVKKPGSSVKVSCKASGGSFSNYAFSWVRQAPGQGLEWMGGTIPLLGTTNYAQKFQGRVTISADQFTSTAYMELGSLRSEDTAVYYCTRRKMTTAFDSWGQGTLVTVSS VL: QPVLTQPPSASASLGASVTLTCTLSSAYSNYKVDWYQQRPGKGPRFVMRVGTGGIVGSKGDGIPDRFSVLGSGLNRYLTIKNIQEEDESDYHCGADHGSGSNFVSPYVFGGGTKLTVL | 7240 RLU | 16900 RLU | 5130 RLU | 9720 RLU | 2130 RLU | 19500 RLU | 4960 RLU | 5810 RLU | 15300 RLU | 163 RLU | 21300 RLU | 3370 RLU | 20000 RLU | 45800 RLU | 34700 RLU | 5110 RLU | – | 189 RLU | 5700 RLU | 3380 RLU | Trimeric HA Binding: RLU [15]: 46900 RLU; Trimeric HA Binding: RLU [24]: 48900 RLU; Trimeric HA Binding: RLU [25]: 37900 RLU; Trimeric HA Binding: RLU [26]: 2340 RLU
TCN-522 (3212_I12) (antibody, V domains shown) VH: QVQLQQWGAGLLKPSETLSLTCTVSGGSLTDYSWNWIRQPPGKGLEWIGDTLHNGYTNYNPSLRGRVSISIDTSKNQVSLRLTSVTAADTALYYCARGSGGYGGFDYFGKLRTWDFWGQGTLVTVSS VL: DIQLTQSPSSLSASVGDRVTITCRASQGIRNDLGWYQQKPGNAPKRLIFGASSLQSGVPSRFSGSGSGTEFTLTISSLQPEDFATYYCLQHNSYPYTFGQGTKLEIK | 5260 RLU | 12500 RLU | 19100 RLU | 4500 RLU | 5050 RLU | 13900 RLU | 1960 RLU | 14800 RLU | 9740 RLU | – | 11300 RLU | 3180 RLU | 11300 RLU | 67 RLU | 5020 RLU | 989 RLU | 502 RLU | 639 RLU | – | 145 RLU | Trimeric HA Binding: RLU [27]: 108 RLU; Trimeric HA Binding: RLU [25]: 38900 RLU
TCN-538 (3206_O17) (antibody, V domains shown) VH: QITLKESGPTLVKPTQTLTLTCVFSGFSLSITGVRVGWIRQPPGKALEWLALISWDDEKHYSPSLQSRLTITKDTSKNQVVLTMTNLDPVDTATYYCARSTDRGHVLRYFGWMLPGDAFDVWGQGTMVTVSS VL: DIVMTQSPDFLPVSLGERATINCKSSQRVLYSSNNKNYLAWYQLKPGQPPKLIIYWASTRESGVPDRFSGSGSGTEFTLTISSLQAEDVAVYYCQQYYSRPYTFGQGTKLEIK | – | 7450 RLU | 9740 RLU | 6770 RLU | 1270 RLU | 4810 RLU | 1060 RLU | 7080 RLU | 20500 RLU | 172 RLU | 7290 RLU | 11400 RLU | 14000 RLU | 26400 RLU | 13800 RLU | 43000 RLU | 6120 RLU | 109 RLU | 689 RLU | 60 RLU | Trimeric HA Binding: RLU [8]: 446 RLU; Trimeric HA Binding: RLU [15]: 17400 RLU; Trimeric HA Binding: RLU [17]: 6900 RLU; Trimeric HA Binding: RLU [24]: 37300 RLU; Trimeric HA Binding: RLU [25]: 33200 RLU
